According to patent publication US20230220048A1:

Biological target: recombinant human FcRn (human) (UniProt P55899)
Test: SPR, pH 5.8 (comparison value, data not shown)

recombinant human FcRn (human), sequence (P55899 24-297): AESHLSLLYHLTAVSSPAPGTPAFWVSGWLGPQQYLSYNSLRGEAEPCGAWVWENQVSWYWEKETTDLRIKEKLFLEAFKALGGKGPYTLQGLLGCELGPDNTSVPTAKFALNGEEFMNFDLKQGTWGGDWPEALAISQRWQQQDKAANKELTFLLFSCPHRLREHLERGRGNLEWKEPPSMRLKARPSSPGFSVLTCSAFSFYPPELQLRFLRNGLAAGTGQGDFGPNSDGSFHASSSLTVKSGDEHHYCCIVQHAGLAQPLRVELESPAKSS

Kd: 1 to 2 µM
Substance: wild type HSA (from UniProt P02768 25-607)
